Experiments:
[1] = molecular target: Grb2 SH2 (UniProt P62993); test: SH2 binding enrichment of the phosphorylated peptide, bacterial display (enrichment ratio); higher = better substrate or ligand; peptides without Tyr show the background
[2] = molecular target: c-Src SH2; test: as above
[3] = molecular target: SHP2-C SH2; test: as above
[4] = molecular target: Fes (UniProt P07332); test: phosphorylation enrichment, bacterial display (enrichment ratio); higher = better substrate or ligand; peptides without Tyr show the background
Fes, sequence (P07332 whole entry, looked up): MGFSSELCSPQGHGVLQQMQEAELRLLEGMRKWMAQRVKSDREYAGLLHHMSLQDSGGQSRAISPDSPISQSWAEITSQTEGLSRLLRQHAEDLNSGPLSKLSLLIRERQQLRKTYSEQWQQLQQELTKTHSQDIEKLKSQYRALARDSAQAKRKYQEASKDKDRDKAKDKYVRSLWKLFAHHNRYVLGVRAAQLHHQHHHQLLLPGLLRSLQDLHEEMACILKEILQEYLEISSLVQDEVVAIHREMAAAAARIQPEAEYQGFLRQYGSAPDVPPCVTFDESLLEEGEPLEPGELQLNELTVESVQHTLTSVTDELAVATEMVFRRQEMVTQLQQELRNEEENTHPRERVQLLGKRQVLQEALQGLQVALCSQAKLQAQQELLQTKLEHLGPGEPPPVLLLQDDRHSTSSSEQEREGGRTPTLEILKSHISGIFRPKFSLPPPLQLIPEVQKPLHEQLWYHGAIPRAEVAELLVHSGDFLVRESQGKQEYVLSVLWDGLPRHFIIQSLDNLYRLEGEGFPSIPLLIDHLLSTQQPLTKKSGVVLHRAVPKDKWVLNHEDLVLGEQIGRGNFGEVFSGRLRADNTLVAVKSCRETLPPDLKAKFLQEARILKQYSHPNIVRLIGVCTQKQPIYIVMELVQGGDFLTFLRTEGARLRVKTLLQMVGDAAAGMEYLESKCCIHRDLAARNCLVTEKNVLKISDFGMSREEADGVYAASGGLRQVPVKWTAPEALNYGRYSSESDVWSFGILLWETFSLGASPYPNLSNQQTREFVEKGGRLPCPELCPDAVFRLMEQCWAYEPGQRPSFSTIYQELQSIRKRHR

[5] = molecular target: Hck (UniProt P08631); test: as above
Hck, sequence (P08631 whole entry, looked up): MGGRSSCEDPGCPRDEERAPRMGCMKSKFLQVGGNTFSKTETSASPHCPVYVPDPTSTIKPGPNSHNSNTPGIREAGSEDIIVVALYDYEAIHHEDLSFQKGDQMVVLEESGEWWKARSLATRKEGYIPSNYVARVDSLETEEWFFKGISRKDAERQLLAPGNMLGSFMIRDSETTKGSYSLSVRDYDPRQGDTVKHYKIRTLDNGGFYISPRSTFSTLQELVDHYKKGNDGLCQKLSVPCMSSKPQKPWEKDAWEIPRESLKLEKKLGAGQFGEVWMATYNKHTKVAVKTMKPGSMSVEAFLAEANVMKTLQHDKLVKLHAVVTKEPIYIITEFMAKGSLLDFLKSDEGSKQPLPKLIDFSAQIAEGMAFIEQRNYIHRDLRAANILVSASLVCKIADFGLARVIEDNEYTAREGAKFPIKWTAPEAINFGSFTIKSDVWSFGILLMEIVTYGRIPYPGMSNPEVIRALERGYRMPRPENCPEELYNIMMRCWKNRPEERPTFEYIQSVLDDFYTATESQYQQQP

[6] = molecular target: EPHB1 (UniProt P54762); test: as above
EPHB1, sequence (P54762 whole entry, looked up): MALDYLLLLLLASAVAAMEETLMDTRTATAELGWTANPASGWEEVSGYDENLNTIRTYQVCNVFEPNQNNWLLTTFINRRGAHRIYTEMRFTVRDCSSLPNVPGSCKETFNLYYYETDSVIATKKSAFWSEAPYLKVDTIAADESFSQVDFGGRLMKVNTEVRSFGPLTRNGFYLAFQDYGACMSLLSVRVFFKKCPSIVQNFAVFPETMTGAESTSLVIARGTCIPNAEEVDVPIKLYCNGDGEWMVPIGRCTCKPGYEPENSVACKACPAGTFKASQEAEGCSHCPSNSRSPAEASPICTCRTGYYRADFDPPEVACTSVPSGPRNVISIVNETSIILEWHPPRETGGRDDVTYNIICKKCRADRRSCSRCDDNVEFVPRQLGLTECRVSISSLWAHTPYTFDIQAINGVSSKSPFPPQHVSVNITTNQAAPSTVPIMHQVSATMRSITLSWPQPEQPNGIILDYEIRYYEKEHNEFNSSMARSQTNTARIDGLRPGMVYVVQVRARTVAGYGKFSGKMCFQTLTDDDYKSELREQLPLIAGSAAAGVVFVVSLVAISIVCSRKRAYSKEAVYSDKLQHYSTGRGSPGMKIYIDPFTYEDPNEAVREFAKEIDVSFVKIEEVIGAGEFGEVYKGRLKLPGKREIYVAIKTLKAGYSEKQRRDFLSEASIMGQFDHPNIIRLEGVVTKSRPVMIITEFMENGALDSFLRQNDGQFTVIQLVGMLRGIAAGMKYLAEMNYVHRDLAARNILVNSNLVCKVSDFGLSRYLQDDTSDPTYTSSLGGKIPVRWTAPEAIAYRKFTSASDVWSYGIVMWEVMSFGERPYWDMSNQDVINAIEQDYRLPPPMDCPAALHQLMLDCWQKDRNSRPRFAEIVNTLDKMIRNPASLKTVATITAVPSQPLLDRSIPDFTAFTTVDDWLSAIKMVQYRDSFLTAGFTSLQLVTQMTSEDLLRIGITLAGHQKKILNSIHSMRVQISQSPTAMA

[7] = molecular target: MERTK (UniProt Q12866); test: as above
[8] = test system: c-Src; test: as above
[9] = molecular target: FGFR1 (UniProt P11362); test: as above
[10] = test system: c-Abl (mouse); test: as above
[11] = molecular target: FGFR3 (UniProt P22607); test: as above
FGFR3, sequence (P22607 whole entry, looked up): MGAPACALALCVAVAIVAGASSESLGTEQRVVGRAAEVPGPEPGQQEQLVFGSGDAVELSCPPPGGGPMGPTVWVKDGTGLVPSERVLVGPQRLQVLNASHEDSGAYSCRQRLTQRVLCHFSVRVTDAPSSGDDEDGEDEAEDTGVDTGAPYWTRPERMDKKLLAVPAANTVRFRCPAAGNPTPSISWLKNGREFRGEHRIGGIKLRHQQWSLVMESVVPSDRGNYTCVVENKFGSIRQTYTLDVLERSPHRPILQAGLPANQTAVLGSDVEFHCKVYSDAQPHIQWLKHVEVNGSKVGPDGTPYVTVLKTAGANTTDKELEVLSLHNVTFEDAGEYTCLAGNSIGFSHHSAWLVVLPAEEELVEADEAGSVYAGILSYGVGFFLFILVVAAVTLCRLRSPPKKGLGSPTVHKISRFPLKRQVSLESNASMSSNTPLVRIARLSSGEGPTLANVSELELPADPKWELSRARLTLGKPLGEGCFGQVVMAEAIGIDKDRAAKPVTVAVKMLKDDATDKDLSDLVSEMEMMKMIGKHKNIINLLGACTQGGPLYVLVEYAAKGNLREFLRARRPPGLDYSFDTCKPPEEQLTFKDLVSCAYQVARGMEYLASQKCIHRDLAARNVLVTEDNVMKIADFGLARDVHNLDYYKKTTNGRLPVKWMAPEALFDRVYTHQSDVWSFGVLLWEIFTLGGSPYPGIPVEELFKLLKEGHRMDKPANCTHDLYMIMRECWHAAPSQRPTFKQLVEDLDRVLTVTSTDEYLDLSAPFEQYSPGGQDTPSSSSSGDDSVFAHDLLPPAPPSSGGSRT

[12] = molecular target: Jak2 (UniProt O60674); test: as above
[13] = molecular target: EPHB2 (UniProt P29323); test: as above
EPHB2, sequence (P29323 whole entry, looked up): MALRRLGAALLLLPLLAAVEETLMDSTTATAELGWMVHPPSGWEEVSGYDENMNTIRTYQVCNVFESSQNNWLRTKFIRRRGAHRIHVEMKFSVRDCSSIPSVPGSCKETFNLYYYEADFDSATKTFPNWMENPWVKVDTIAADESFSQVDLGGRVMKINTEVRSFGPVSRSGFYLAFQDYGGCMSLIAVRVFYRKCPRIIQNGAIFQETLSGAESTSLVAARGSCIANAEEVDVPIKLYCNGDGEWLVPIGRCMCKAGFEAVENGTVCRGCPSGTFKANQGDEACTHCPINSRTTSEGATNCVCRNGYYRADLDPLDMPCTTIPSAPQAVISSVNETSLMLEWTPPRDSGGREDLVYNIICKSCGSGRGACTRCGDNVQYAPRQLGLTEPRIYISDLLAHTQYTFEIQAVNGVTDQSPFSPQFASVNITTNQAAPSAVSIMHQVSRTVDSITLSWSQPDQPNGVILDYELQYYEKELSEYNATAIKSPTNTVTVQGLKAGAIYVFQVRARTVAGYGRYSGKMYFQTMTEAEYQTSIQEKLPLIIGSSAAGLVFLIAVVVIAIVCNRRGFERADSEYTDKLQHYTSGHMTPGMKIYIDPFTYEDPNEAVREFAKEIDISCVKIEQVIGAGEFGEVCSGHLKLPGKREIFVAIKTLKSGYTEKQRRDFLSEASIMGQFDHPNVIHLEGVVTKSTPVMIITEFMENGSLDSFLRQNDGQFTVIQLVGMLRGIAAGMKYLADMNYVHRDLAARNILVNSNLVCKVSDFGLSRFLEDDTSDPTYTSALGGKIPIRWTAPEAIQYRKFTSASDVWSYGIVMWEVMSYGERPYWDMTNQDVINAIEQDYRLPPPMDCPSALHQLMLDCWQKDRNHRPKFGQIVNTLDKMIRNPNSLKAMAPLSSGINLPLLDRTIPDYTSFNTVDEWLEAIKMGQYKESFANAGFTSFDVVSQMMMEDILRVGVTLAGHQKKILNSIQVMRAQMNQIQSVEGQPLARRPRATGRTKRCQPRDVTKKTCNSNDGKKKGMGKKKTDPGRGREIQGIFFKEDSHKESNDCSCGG

[14] = test system: AncSZ; test: as above
[15] = molecular target: Fyn (UniProt P06241); test: as above
Fyn, sequence (P06241 whole entry, looked up): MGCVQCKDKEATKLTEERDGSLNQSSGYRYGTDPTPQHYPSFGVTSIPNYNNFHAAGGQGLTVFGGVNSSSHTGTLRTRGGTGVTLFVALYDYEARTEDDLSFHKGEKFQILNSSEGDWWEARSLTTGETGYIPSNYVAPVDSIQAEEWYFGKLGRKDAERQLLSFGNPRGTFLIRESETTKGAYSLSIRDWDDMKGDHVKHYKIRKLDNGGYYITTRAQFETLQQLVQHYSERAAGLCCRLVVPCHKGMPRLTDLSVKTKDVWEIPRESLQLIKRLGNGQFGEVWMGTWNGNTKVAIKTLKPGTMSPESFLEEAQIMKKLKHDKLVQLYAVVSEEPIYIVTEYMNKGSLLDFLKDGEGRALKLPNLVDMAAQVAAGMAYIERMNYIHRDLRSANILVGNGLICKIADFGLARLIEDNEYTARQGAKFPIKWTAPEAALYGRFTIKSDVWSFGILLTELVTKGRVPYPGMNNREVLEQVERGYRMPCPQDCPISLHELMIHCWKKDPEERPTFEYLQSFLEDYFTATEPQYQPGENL

[16] = test system: Fer (mouse); test: as above
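For SH2 binding enrichment of the phosphorylated peptide, bacterial display in this document: peptide library displayed on the E. coli surface as eCPX fusions, selected cells deep-sequenced, score is each peptide's frequency after selection divided by its frequency in the input.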
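For phosphorylation enrichment, bacterial display in this document: 11-residue human phosphosite peptides and single-mutation variants displayed on the E. coli surface, counted by deep sequencing, each peptide's frequency after selection divided by its frequency in the unselected input library; frequency after pTyr selection over input frequency; kinase dosed for 20-30% of maximal phosphorylation in three min.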

Grb2 SH2, sequence (P62993 whole entry, looked up): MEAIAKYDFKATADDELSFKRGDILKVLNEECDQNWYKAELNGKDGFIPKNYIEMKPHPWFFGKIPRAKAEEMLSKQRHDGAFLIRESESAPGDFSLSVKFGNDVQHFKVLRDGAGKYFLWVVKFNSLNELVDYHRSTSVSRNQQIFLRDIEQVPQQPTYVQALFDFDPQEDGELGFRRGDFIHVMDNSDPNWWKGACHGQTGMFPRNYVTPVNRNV

Row | Sequence | SH2 binding enrichment [1] | SH2 binding enrichment [2] | SH2 binding enrichment [3] | phosphorylation enrichment [4] | phosphorylation enrichment [5] | phosphorylation enrichment [6] | phosphorylation enrichment [7] | phosphorylation enrichment [8] | phosphorylation enrichment [9] | phosphorylation enrichment [10] | phosphorylation enrichment [11] | phosphorylation enrichment [12] | phosphorylation enrichment [13] | phosphorylation enrichment [14] | phosphorylation enrichment [15] | phosphorylation enrichment [16]
1 | VGTTAYVAPEA [IRAK4_Y354_M355V] | 0.938 | 0.605 | 0.76 | 0.911 | 0.41 | 0.558 | 0.427 | 0.433 | 0.412 | 0.653 | 0.507 | 0.79 | 0.445 | 0.888 | 0.392 | 0.424
2 | VHHLVYHHHHH [CACNA1H_Y519] | 1.28 | 1.15 | 1.36 | 1.99 | 0.65 | 0.725 | 0.52 | 0.602 | 0.55 | 0.963 | 1.23 | 1.66 | 0.696 | 0.777 | 0.546 | 0.896
3 | VHNLDYFKQTT [FGFR3_Y647_K650Q_YF] | 0.795 | 0.449 | 0.573 | 0.958 | 0.525 | 0.56 | 0.434 | 0.542 | 0.743 | 0.602 | 0.819 | 1.31 | 0.545 | 0.767 | 0.652 | 0.48
4 | VHNLDYYKETT [FGFR3_Y647_K650E] | 0.702 | 0.564 | 0.585 | 0.824 | 0.456 | 0.452 | 0.39 | 0.367 | 0.789 | 0.577 | 0.769 | 0.714 | 0.497 | 0.903 | 0.421 | 0.439
5 | VHNLNYYKKTT [FGFR3_Y647_D646N] | 1.04 | 0.539 | 0.746 | 0.682 | 0.464 | 0.429 | 0.528 | 0.487 | 0.447 | 0.671 | 0.665 | 0.728 | 0.449 | 0.506 | 0.435 | 0.32
6 | VHYLVYHHHHH [CACNA1H_Y519_H516Y] | 0.985 | 1 | 1.45 | 2.17 | 0.632 | 0.687 | 0.773 | 0.587 | 0.7 | 1.4 | 1.07 | 1.49 | 0.666 | 1.17 | 0.537 | 0.678
7 | VKMLPYTEVTR [GDI1_Y93_L92P] | 0.988 | 2.9 | 0.863 | 0.717 | 0.45 | 0.437 | 0.494 | 0.4 | 0.416 | 0.492 | 0.49 | 0.573 | 0.431 | 0.555 | 0.368 | 0.282
8 | VLAAQYTTVGR [SGSH_Y240_D235V] | 0.953 | 5.28 | 2.77 | 0.598 | 0.543 | 0.503 | 0.421 | 0.445 | 0.352 | 0.514 | 0.48 | 0.426 | 0.307 | 0.551 | 0.367 | 0.394
9 | VLDSHYPEDEV [C1QBP_Y188_C186S] | 1.06 | 0.573 | 0.697 | 1.26 | 0.516 | 0.611 | 0.488 | 0.525 | 0.52 | 0.746 | 0.736 | 1.16 | 0.564 | 1.33 | 0.473 | 0.51
10 | VLRQVYVDFEG [KMT2B_Y1707_R1705Q] | 0.833 | 0.938 | 1 | 1.28 | 0.86 | 0.877 | 0.465 | 1.42 | 0.721 | 0.692 | 0.871 | 0.993 | 0.722 | 1.16 | 1.85 | 0.579
11 | VMICAYLLHRG [PTEN_Y138] | 1.05 | 0.723 | 0.714 | 1.68 | 0.558 | 0.612 | 0.482 | 0.644 | 0.642 | 1.27 | 0.778 | 1.36 | 0.63 | 1.21 | 0.478 | 0.688
12 | VMSMNYRVGAL [BCHE_Y174_V170M] | 0.719 | 0.461 | 0.775 | 0.878 | 0.447 | 0.578 | 0.416 | 0.484 | 0.485 | 0.686 | 0.573 | 0.715 | 0.592 | 0.767 | 0.462 | 0.438
13 | VNYGAYINDFN [GLB1_Y488_K493N] | 9.16 | 6.95 | 1.05 | 1 | 0.533 | 0.737 | 0.469 | 0.675 | 0.451 | 0.703 | 0.616 | 0.748 | 1.09 | 1 | 0.87 | 0.462
14 | VPDTNYTSDEE [STK33_Y439_A437T] | 1.23 | 0.675 | 0.811 | 1.19 | 0.552 | 0.562 | 0.437 | 0.465 | 0.606 | 0.748 | 0.708 | 1.07 | 0.658 | 1.23 | 0.56 | 0.511
15 | VPVNGYQPVPA [ROR2_Y824] | 0.91 | 0.691 | 0.634 | 0.748 | 0.422 | 0.554 | 0.382 | 0.413 | 0.55 | 0.439 | 0.517 | 0.416 | 0.391 | 0.859 | 0.382 | 0.52
16 | VPVPGYTKLPE [SPRR3_Y146] | 0.635 | 0.458 | 0.445 | 1.05 | 0.487 | 0.544 | 0.499 | 0.419 | 0.531 | 0.988 | 0.671 | 0.848 | 0.642 | 0.865 | 0.464 | 0.473
17 | VQNIVYHTASI [CYP39A1_Y102_R103H] | 0.82 | 1.69 | 4.37 | 0.708 | 0.543 | 0.375 | 0.376 | 0.636 | 0.435 | 0.824 | 0.408 | 0.621 | 0.43 | 0.605 | 0.401 | 0.386

Row | Sequence | SH2 binding enrichment [1] | SH2 binding enrichment [2] | SH2 binding enrichment [3] | phosphorylation enrichment [4] | phosphorylation enrichment [5] | phosphorylation enrichment [6] | phosphorylation enrichment [7] | phosphorylation enrichment [8] | phosphorylation enrichment [9] | phosphorylation enrichment [10] | phosphorylation enrichment [11] | phosphorylation enrichment [12] | phosphorylation enrichment [13] | phosphorylation enrichment [14] | phosphorylation enrichment [15] | phosphorylation enrichment [16]
18 | VSSPKYGSNDE [TMCC2_Y473_D476N] | 0.722 | 0.519 | 0.657 | 0.912 | 0.426 | 0.452 | 0.454 | 0.514 | 0.406 | 0.801 | 0.619 | 0.857 | 0.536 | 0.867 | 0.445 | 0.509
19 | VTSLKYSTSPY [BRIP1_Y916] | 0.754 | 0.43 | 0.42 | 0.655 | 0.516 | 0.52 | 0.493 | 0.542 | 0.487 | 0.537 | 0.467 | 0.6 | 0.498 | 0.751 | 0.523 | 0.451
20 | VVTFSYKPPGN [RBL2_Y544] | 0.979 | 0.711 | 0.7 | 0.696 | 0.429 | 0.455 | 0.431 | 0.423 | 0.592 | 0.673 | 0.519 | 0.911 | 0.476 | 0.634 | 0.42 | 0.367
21 | WCKPLYFSCAV [MMS22L_Y28_P27L] | 1.5 | 1.32 | 1.22 | 1.21 | 0.607 | 0.737 | 0.907 | 1.18 | 1.14 | 0.821 | 1.1 | 1.57 | 0.598 | 1.26 | 0.533 | 0.541
22 | WNRDKYAATTT [TRIM39_Y439_G436R] | 0.772 | 0.498 | 0.798 | 0.59 | 0.375 | 0.448 | 0.471 | 0.411 | 0.439 | 0.542 | 0.34 | 0.65 | 0.401 | 0.734 | 0.358 | 0.37
23 | WPLKWYAPECI [ZAP70_Y506] | 0.83 | 0.501 | 0.817 | 1.39 | 0.405 | 0.886 | 0.433 | 0.425 | 0.573 | 0.666 | 0.806 | 1.03 | 0.766 | 1.25 | 0.565 | 0.598
24 | YEDTLYTVLHR [UNC13D_Y61_A59T] | 0.761 | 2.26 | 0.525 | 1.41 | 8.16 | 12.2 | 8.84 | 6.38 | 2.08 | 3.32 | 2.09 | 1.39 | 9.31 | 2.9 | 7.58 | 9.1
25 | YEEDSYSHVMA [FDPS_Y388_I391V] | 0.772 | 2.64 | 0.69 | 1.17 | 0.606 | 0.59 | 0.464 | 0.587 | 1.22 | 0.696 | 1.27 | 0.944 | 0.65 | 1.87 | 0.775 | 1.64
26 | YEKFLYFLPAS [DYNC2H1_Y346_H341Y] | 1.05 | 2.21 | 1.19 | 1.31 | 0.827 | 0.764 | 2.16 | 0.938 | 0.57 | 0.89 | 0.91 | 2.7 | 0.644 | 1.5 | 0.868 | 0.581
27 | YENGEYIVRQG [PRKG1_Y247_I249V] | 32.9 | 8.91 | 1.14 | 0.937 | 0.495 | 0.543 | 0.424 | 0.466 | 0.495 | 0.582 | 0.729 | 0.784 | 0.464 | 1.02 | 0.494 | 0.483
28 | YFVVEYRDQKP [MUC17_Y4332] | 1.17 | 3.98 | 5.95 | 1.66 | 0.589 | 1.23 | 4.97 | 0.728 | 13.8 | 0.788 | 12.1 | 3.02 | 0.909 | 2.1 | 0.786 | 0.75
29 | YLENYYDLEKD [MMP3_Y42_K45E] | 0.769 | 0.985 | 0.557 | 1.47 | 1.63 | 5.81 | 0.752 | 2.29 | 7.06 | 0.957 | 5.26 | 1.15 | 3.24 | 1.76 | 4.51 | 0.781
30 | YMRGMYFRMKD [PLA2G6_Y541] | 1.59 | 1.3 | 1.5 | 0.947 | 0.44 | 0.42 | 0.439 | 0.384 | 0.462 | 0.657 | 0.589 | 1.16 | 0.523 | 0.924 | 0.416 | 0.423
31 | YPPTHYIRRMP [SLC4A11_Y820_V824M] | 0.875 | 0.606 | 0.765 | 0.597 | 0.339 | 0.455 | 0.447 | 0.381 | 0.451 | 0.484 | 0.493 | 0.4 | 0.412 | 0.717 | 0.397 | 0.59
32 | YQEPVYSVAFS [TBL1X_Y509_H504Y] | 0.781 | 2.93 | 0.527 | 4.74 | 11.1 | 18.9 | 12.7 | 8.72 | 6.72 | 29.6 | 5.72 | 0.989 | 26.2 | 5.95 | 12.4 | 17.5
33 | YSSLGYPLPEG [ZSWIM4_Y87_P89L] | 0.986 | 2.8 | 10.8 | 0.904 | 2.05 | 0.53 | 7.91 | 1.57 | 1.28 | 0.978 | 1.06 | 0.785 | 0.758 | 1.01 | 2.63 | 0.687

Source: the supplement of paper PMC10065799, “High-throughput profiling of sequence recognition by tyrosine kinases and SH2 domains using bacterial peptide display” (eLife, 2023)
